B1: TPR t1 (parent)
chain: GACCAAUCUGCCCUCAGAGCUCGAGAACAUCUUCGGAUGCAGAGGAGGCAGGCUUCGGUGGCGCGAUAGCGCCAACGUCCUCAACCUCCAAUGCAUCCCACCACAUGAUGAUGCCUGAAGAGCCUUGGUUUUUUG

Variants of: B1
Assay: polymerase ribozyme fitness, log enrichment relative to wild type (log ratio); higher = more active; in vitro selection for triplet polymerase activity
How it was run: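 A single round of triplicate in vitro selection, including frozen incubation at −7 °C, was applied to PCR-built, transcribed mutant libraries of each subunit of a heterodimeric triplet polymerase ribozyme. Illumina sequencing of input and output libraries retained genotypes with ≥10 input reads and ≥1 read per output. Fitness is the base-2 logarithm of genotype enrichment divided by wild-type enrichment, from inverse-variance-weighted replicate averages.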

Variant | polymerase ribozyme fitness (log ratio)
GACCAAUCUGCCCUCAGAGCUCGAGAACAUCUUCGGAUGCAGAGGAGGCCGGCUUCGGUGGCGCGAUAGCGCCAACGUGCUCAACCUCCAAUGCAUCCCACCACAUGAUGAUGCCUGAAGAGCCAUGGUUUUUUG | -1.78
GACCAAUCUGCCCUCAGAGCUCGAGAACGUCUUCGGAUGCAGAGGAGGCAGGCUUCGGUGGCGCGAUAGCGCCAACGUCCUCAACCUCCCACGCAUCCCACCACAUGAUGAUGCCUGAAGAGCCUUGGUUUUUUG | -3.09
GACCAAUCUGCCCUCAGAGCUCGAGAACAUCUUCGGAUGCAGAGGAGGCAGGCUUCGGUGGCGCGAUAGCGCCAACGUCCUCAAGCUCCAAUGCAUCCCACCACAUGAUGAUGUCUGAAGAGCCUUGGUUUUUUG | -3.59
GACCAAUCUGCCCUUAGAGCUCGGGAACAUCUUCGGAUGCGGAGGAGGCAGGCUUCGGUGGCGCGAUAGCGCCAACGUCCUCAACCUCCAAUGCAUCCCACCACAUGAUGAUGCUUGAAGAGCCUUGGUUUUUUG | -2.93
GACCAAUCUGCCCUCAGAGCUCGAGAACAUCUUCAGAUGCAGAGGAGGCAGGCUUCUGUGGCGCGAUAGCGCCUACGUCCUCAACCUCCAAUGCAUCCCACCACAUGAUGAUGCCUGAAGAGCCUUGGUUUUUUG | -4.21
GACCCAUCUGCCCUCAGAGCUCGAGAACAUCUUCGGAUGCAGAGGAGGUAGGAUUCGGUGGCGCGAUAGCGCCAACGUCCUCAACCUCCAAUGCAUCCCACCACAUGAUGAUGCCUGAAGAGCCUUGGUUUUUUG | -1.24
GACCAAUCUGCCCUCAGAGCUCGAGAACAUCUUCGGAUGCAGAGGAGUCAGGCUUCGGUGGCGCGAUAGCACCAACGUCCUCAACCUCCAAUGCAUCCCACCACAUGAUGAUGCCUGAAGAGACUAGGUUUUUUG | -2.04
GACCAAUCUGCCCUCAGAGCUCGAGAACAUCUUCGGAUACAGAGGAGGUAGGCUUCGGUGGCGCGAUAGCGCCAACGCCCUCAACCUCCAAUGCAUCCCACCACAUGAUGAUGCCUGAAGAGCCUUGGUUUUUUG | -1.72
GACCAAUCUGCCCUCAGAGCUCGAGAACAUCUUCGGAUGCAGAGGAGGCAGGCUUCGGUGGCCCGAUAGCGCCAACGUCCUCAACCUCCAAUGCAUCCCACCACAUGAUGAUGCUUGAAGAGCCUUGGUUUUUUG | -1.32
GACCAAUCUGCCCUCAGAGCUCGAGAACAUCUUCGGAUGCAGAGGAGGCAGUCUUCGGUGGCACGAUAGCGCCAACGUCCUCAACCUCCAAUGCAUCCCACCACAUGAUGAUGCCUGAAUAGCCUUGGUUUUUUG | -1.08
GACCAAUCUGCCCUCAGAGCUCGAGAACAUCUUCGGAUGCAGAGGAGGCAGGAUUCGGUGGCGCGAUAGCGCCAACGUCCUCAACCUCCAAUGCAUCCCACCACAUGAUGAUGCCUGAAUACCCAUGGUUUUUUG | -0.563
GACCAAUCUGCCCUCAGAGCUCGAGAACAUCUUCGGAUGCAGAGGAGGCAGGCUUCGGUGGCGCGAUAGCGCCCACGUCCUCAACCUCCAAUGCAUCCCACCACAUGAUGAUGCCUGAAGAGCCUUGGUUUUAUG | -0.0752
GACCAAUCUGGCUUCAGAGCUCGAGAACAUCUUCGGAUGCAGAGGAGGCAGGCUUUGGUGGCGCGAUAACGCCAACCUCCUCAACCUCCAAUGCAUCCCAACACAUGAUGAUGCCUGAAGAGCCUUGGUUUUUUG | -5.25
GGCCAAUCUGCCCUCAGAUCUCGAGAACAUCUUUGGAUGCAGAGGAAGAAGGCUUCGGUGGCGCGAUAGCGCCAACGUCAUCAACCUCCAAUCCAUCCCACCACAUGAUGAUGCCUGAAUAGCCUUGGUUUUUUG | -6.24
GACCACUCUGCCCUCAGAGCUCGAGAACAUCUUCGGAUGCAGAGGAGACAGGCUUCGGUGGCGCGAUAGCUCCAACGUCCUAAACCUCCAAUGCAUCCCACCACAUGAUGAUGCCUGAAGAGCCUUGGUUUUUUG | -1
GACCAAUCUGCCCACAGAGCUCGAGAACAUCUUCGGAUGCAGAGGAGGCAGGCUUCGGUGGCGCGAUAGCGCCAACGUCCUCACCCUCCAAUGCAUCCCACCACAUGAUGAUGCCUGAAGAACCUUGGUUUUUUG | -1.57
GACCAAUCUGCCCUCAGAGCUCGAGAACAUCUUCGGAUGCAGAGGAGGCAGGCUUCGGUGGCGCGAUAGCGCCAACGUCCUCAACCUCCAAUGCAACCCACCACAUGAUGAUGCCUGAAGAGGCUUGGUUUUUUG | 0.707
GACCAUUCUGCCCUCAGAGCUCGAGAACAUCUUCGGAUGCAGAGGAGGUAGGCUUCGGUUGCGCGAUAGCGCCAACGUCCUCAACCUCCAAUGGAUCCCACCACAUGAUGAUACCUGAAGAGCCUUGGUUUUUUG | -2.65
GACCGAUCUGCCCUCAGAGCUCGAGAACAUCUUCGGAUGCAGAGGAGGCAGGCUUCGGUGGCGCGAUAGGUCCAACGUCCUCAACCUCCAAUGCAUCCCACCACAUGAUGAUGCCUGAAAAGCCUUGGUUAUUUG | -4.58
GACCAAUCUGCCCUCAGAGCUCGAGAACAUCUUCGGAUGCAGAGGAGGCAGGCUUCGCUGGCGCGAUAGCGCCAACGUCCUCAACCUCCUAUGCAUCCCACCACAUGAAGAUGUCUGAAGAGCCUUGGUUUUUUG | -5.55
GACCAAUCUGCCCUCAGAGCUCGAGAACAUCUUCGGAGGCAGAGGAGGCAGGCUUCGGUGGCGCGAUAGCGCCAACGUCCUCAACCUCCACUGCAUCCCACCACAUGAUGAUGCCUGAAGAGCCUUGGUUUUUUG | -2.88

Variant | polymerase ribozyme fitness (log ratio)
GACCAAUCUGCCCACAGAGCUCGAGUACAUCUUCGGAUGCAGAGGAGGCAGGCUUCGGUGGCGCGAUAGCGCCAACGUCCUCAACCUCCAAUGCAUCCCACCACAUGAUGAUGCCUGAAGAGCCUUGGUUUUUUG | -5.1
GACCAAUCUGCCCUCAGAGCUCGAGAACCUCUUCGGAUGCAGAGGAGGCAGGCUUCGGUGGCGCGAUAGCGCCAGCGGCCUCAACCUCCAAUGCAUCCCACCACAUGAUGAUGCCUGAAGAGCCUUGGUUUUUUG | -2.56
GACCAAUCUGUCCUCAGAGCUCGAGAACAUCUUCGGAUGCAGAGGAGGCAGGCUUAGGUGGCGCGAUAGCGCCAACGUCCUCAACCUCCAUUGCACCCCACCACAUGAUGAUGCCUGAAGAGCCUUGGUUUUUUG | -3.51
GACCAAUCUGCCCUCAGAGCUCGAGAACAUUUUCGGAUGCAGAGGAGGCAGGCUUCGGUGGCGCGAUAUCGCCAACGUCCUCAACCUCCAAUGCAUCUCACCACAUGAUGAUGCCUGAGGAGCCUUGGUUUUUUG | -3.7
GACCAAUCUGCCCUCAGAGCUCGAGAGCAUCUUCGGAUGUAGAGGAGGGAGGCUUCGGUGGCGCGAUAGCGCUAACGUCCUCAACCUCCAAUGCAUCCCACCACAUGAUGAUGCCUGAAGAGCCUUGGUUUUUUG | -2.98
GACCAAUCUGCCCUCAGAGCUCGAGAACAUCUUCGGAUGCAGAGGAGGGAGGCUUCGGUGGCGCGAUAGCGGCAACGUCCUCAACCUCCAAUGCAUCCCACCACAUGAUGAUGCCUGAACAGCCUUGGUUUUUUG | -0.782
GACCAAUCUGCCCUGAGAGCUCGAGAACAUCUUCGGAUGCAGAGGAGGCAGGCUUCGGUGGCGCGAUAGCGCCAACGUCCUCAACCUCCAAUGCAUUCCACCACAUGAUGAUGCCUGAAGAGCUUUGGUUUUUUG | -1.59
GACCAAUCUGCCCUCAGAGCUCGAGAACAUCUUCGAAUGCAGAGGAGGCAGGCUUCGGUGGCGCGAUAGCGCCAACGUCCUCAACCUCCAAUGCAUCCCACCACAUGAUGAUGCCUGAAGAGCCUUGGUUUUUUG | -0.858
GACCAAUCUGCCCUCAGAGCUCGAGAACAUCUUCGGAUGCAGAGGAGGCAGGCCUCGGUGGCGCGAUAGCGCCAAUGUCCUCAACCUCCAAUGCAUCCCACCACAUGAUGAUGCCUGAAGAGCCUUGGUUUUUUG | -0.00868
GACCAAUCUGCCCUCAGAGCUCGAGAACAUCUUCGGAUGCAGAGGAGGCAGGCUUCGGUCGCGCGAUAGCGCCAACGUCUUCAACCUCCAAUGCAUCCCACCACAUGAUGAUGCCUGAAGAGCCUUGGUUUUUUG | -4.1
GACCAAUAUGCCCUCAGAGCUCGAGAACAUCUUCGGAUGCAGAGGAGGCAGGCUUCGGCGGCGCGAUAGCGCCAACGUCCUCAACCUCCAAUGCAUCCCACCACGUGAUGAUGCCUGAAGAGACUUGGUUUUUUG | -2.08
GACCAAUCUGCCCUCAGAGCUCGAGAACAUCUUCGGAUGCAGAGGAGGCAGGCUUCGGUGGCGCGAUAGCGUCAACGUCCUCAGCCUCCAAUGCAUCCCACCACAUGAUGAUGCCUCAAGAGCCUUGGUUUUUUG | -4.48
GACCAAUCUGCCCUCAGAGCUCGAGGACAUCUUCGGAAUCAGAGGAGGCAGGCUUCGGUGGCGCGAUAGCGCCAACGUCCUCAACCUCCAAUGCAUCCCACCACAUGAUGAUGCCUGAAGAGCCUUGGUUUUUUG | -4.5
GACCAAUCUGCCCUCAGAGCUCGAGAACAUCUUCGGAUGCAGAGGAGGCAGGCUUCGGUGGCGCGAUACCGCCAACGUCCUCAACCUACAAUGCAUCCCACCACAUGAUGAUGCCUGAAGAGCCUUGGUUUUUUG | -2.15
GACCAAUCUGCCCUCAGAGCUCGAGAACAUCUUCGGAUUCAGAGGAGGCAGGCUUCGGUGACGCGAUAGCGCCAACGUCCUCAAUCUCCAAUGCAUCCCACCACAUGAUGAUGCCUGAAGAGCCUUGGUUUUUUG | -0.878
GACCAAUCUGCCCUCAGAGCUCGAGAACAUCUUCCGAUGCAGAGGAGGCAGGCUUCGGUGGCGCGAUAGCGCCAACGUCCUCAACCUCCAAUGCAUCACACCCCAUGAUGAUGCCUGAAGAGUCUUGGUUUUUUG | -5.49
GACCAAUCUGCCCUCAGAGCUCGAGAACAUCUUCGGAUACAGAGGAGGCAGGCUUCGGUGGCGCGAUAGCGGCAACGUCCUCAACCUCCAAUGCAUCCCACCACAUGAUGAUGCCUGAAGAGCCUUGGUUUUUUG | -0.976
GACCAAUCUGCCCUCAGAGCUCGAGAACAUCUUCGGAUGCAGAGGACGCAGGCUUCGGUGGCGCGAUAGCGCCAACGUCCUCAACCUCCAAUGCAUCCCACCACAUGAUGAUGCAUGAAGAGCCUUGGUUUUUUG | -2.22
GACCAAUCUGCCCUCAGAGCUCGAGAACAUCUUCGUAUUCAGAAGAGGCAGGCUUCGGUGGCGCGAUAGCGCCAACGUCCUCAACCUCCAAUGCAUCCCACCACAUGAUGAUGCCUGAAGAGCCUUGGUUUUUUG | -4.17
GACCAACAUGCCCUCAGAGCUCGAGACCAUCUUCGGAUGCAGAGGAGGCAGGCUUCGGUGGCGCGAUAGCGCCAACGUCCUCAACCUCCAAUGCAUUCCACCACAUGAUGAUGCCUGAAGAGCCUUGGUUUUUUG | -2.64
GACCAAUCUGCCCUCAGAGCUCGAGAACAUCUUCGGAUGCAGAGGAGGCAGGCUUUGGUGGCGCGAUAGCGCGAACGUCCUCAACCUCCAAUGCAUCCCACCACAUGAUGAUGCCUGAAGAGCCUUGGUUUUUUG | -2

From the RNAGym collection of RNA variant scans (doi:10.1073/pnas.2313332121)
